Source: the nanobody polyreactivity screen of Harvey et al. (2022)

Assay: yeast display, Sf9 membrane polyspecificity reagent, FACS + sequencing; frameworks hold sequencing errors
Procedure, shortened: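 After 36–48 hours of galactose induction, yeast (Saccharomyces cerevisiae BJ5465) displaying a synthetic nanobody library were stained at 4 °C for 1 hour with 10% biotinylated, detergent-solubilized Sf9 membrane reagent. Streptavidin microbeads enriched the stained cells before FACS sorting into low and high (top ~1%) gates on anti-HA and streptavidin fluorescence. Each clone's polyreactivity label reflects its gate of origin.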

Sequence: QGQLVESGGGLVQAGGSLRLSCAASGSTFRYNTMGWYRQAPGKERELVAAISSGGGTHYADSVKGRFTISRDNAKNTVYLQMNSLKPEDTAVYYCAAQSRYRYQFYSGLEYDYWGQGTQVTVSS
- polyreactivity (PSR sort gate): low polyreactivity

Sequence: QVQLVESGGGLVQAGGSLRLSCAASGRTFYFYVMGWYRQAPGKERELVASITSGGSTNYADSVKGRFTISRDNAKNTVYLQMNSLKPEDTAVYYCAAALPASTSGTQPYDYWGQGTQVTVSS
- polyreactivity (PSR sort gate): low polyreactivity

Sequence: QVQLLESGVGLVQEGGSLRLSCPASGRIFGSKAMGWYRQAPGKERELVAAITRGGSTNYADSVEGRFTISRDNAKNTVYLQMNSLKPEYTAVYYCAVRWYRKYNYWGQGTLVTVSS
- polyreactivity (PSR sort gate): high polyreactivity

Sequence: QVQLVESGGGLVQAGGSLRLSCAASGRTFYYYAMGWYRQAPGKEMELGAAIRRSGSSTYYADSVKGRFTISRDNAKNTVYLQMNSLKPEDTAVYYCAAAVYQRARYYWGQGTQVTVSS
- polyreactivity (PSR sort gate): high polyreactivity

Sequence: QVQLVESGGGLVQAGGSLRLSCAASGSTFPAYAMGWYRQAPGKERELVAGISSGGRTYYADSVKGRFTISRDNAKNTVYLQMNSLKPEDTAVYYCAAFRFYWQRPDRYYYWGQGTQVTVSS
- polyreactivity (PSR sort gate): high polyreactivity

Sequence: QVQLVESGGGLVQAGGSLRLSCAASGRTFYTNAMGWYRQARGKERELVAGISWGDGNTYYADSVKWRFTISRDNAKNTVYLQMNSLKPEDTALYYCAVTYIILWSYSHTEFDYWGQGNQVTVSS
- polyreactivity (PSR sort gate): low polyreactivity

Sequence: QVQLVESGGGLVQAGGSLRLSCAASGSTFSDYAMGWYRQAPGKERELVAAISYSGGSTYYADSVKGRFTISRDNAKNTVYLQMNSLKPEDTAVYYCAAEYERYFGYDYWGQGTQVTVSS
- polyreactivity (PSR sort gate): low polyreactivity

Sequence: QVQLVESGGGLVLAGGSLRLSCAASGLTFEYNAMGWYRQAPGKEGELVASISSGGGTNYADSVKGRFTISRDNAKHTVYLQMNSLKPEDTAVYYCATDNYDWSSWAFRGYWYDYWGQGTQVTVSS
- polyreactivity (PSR sort gate): low polyreactivity

Sequence: QVQLVESGGGLVQAGGSLRLSCAASGLIFHQYAMGWYRQAPGKERELVAAITRSGTRTYYADSVKGRFTISRDNAKNTVYLQMNSLKPEDTAVYYCAAGDTQGVSMDYWGQGTQVNVSS
- polyreactivity (PSR sort gate): high polyreactivity

Sequence: QVQLVESGGGLVQAGGSLRLSCAASGFTFSFYAMGWYIQAPGKERELVAVISKSGGRTYYADSVKGRFTISRDNAKNTVYLQMNSLKPEDTAVYYCAAKRTSTRIYTFEYWGQGTQVTVSS
- polyreactivity (PSR sort gate): high polyreactivity

Sequence: QVQLVESGGGLVQAGGSLRLSCAASGFTFVRNVMGWYRQAPGKERELVAAINTGGTTDYADSVKGRFTISRDNAKNTVYLQMNSLKPEDTAVYYCNADYDSQYHYLLRYDYWGQGTQVTVSS
- polyreactivity (PSR sort gate): low polyreactivity

Sequence: QVQLVESGGGLVQAGGSLRLSCAASGLIFNYYAMGWYRQAPGKERELVAAISYNGGTTYYADSVKGRFTISRDNAKNTVYLQMNSLKPEDTAVYYCAAEQLVSGYDYWGQGTQVTVSS
- polyreactivity (PSR sort gate): low polyreactivity

Sequence: QVQLVESGGGVVQAGGSLRLSCAASGITFQYYDMGWFRPAPGKERELVAAISWSTDMTYADSVKGRFTISRDNAKNTDYLQMNSLKPEDTAVYYCAASTYEYTSYDYWGQGTQVTVSS
- polyreactivity (PSR sort gate): low polyreactivity

Sequence: QVQLVESGGGLVQAGGSLRLSCAASGSIFSYYVMGWYRQAPGKERELVAAITRSGGSTYYADSVKGRFTISRDNAKNTVYLQMNRLKPEDTAVYYCAATYSHRRGDYWGQGTQVTVSS
- polyreactivity (PSR sort gate): high polyreactivity

Sequence: QVQLVESGGGLVQAGGSLRLICAASGSIFVGYAMGWCRQAPGKERELVAAIRSGGSTKYADSVKGRFTISRDNAKNTVYLQMNSLKPEDTAVYYCNVEVHPYYWVDNFHRFPVLHNYWGQGTQVTVSS
- polyreactivity (PSR sort gate): low polyreactivity

Sequence: QVQLVESGGGLVQAGGSLRLSCAASGRTSVRYAMGWYRQAPGKERELVAAISWSGGSTYYADSVKGRFTISRDNAKNTVYLQMNSLKPEDTAVYYCNAQHARGYYYWGQGTQVTVSS
- polyreactivity (PSR sort gate): low polyreactivity

Sequence: QVQLVESGGGLVQAGGSLRLSCAASGSTFLTYAMGWYRQAPGKEREFVAAISSTGTGRTYYADSVKGRFTISRDNAKNTVYLQMNSLKPEDTAVYYCAADLYGTYDYWGQGTQVTVSS
- polyreactivity (PSR sort gate): low polyreactivity

Sequence: QVQLVESGGGLVQAGGSLRLSCAASGRIFYFNAMGWYRQAPGKERELVAAISWRGGSTYYADSVKGRFTISRDYAKNTVYLQMNSLKPEDTAVYYCNAVLWGYWPGYDYWGQGTQVTVSS
- polyreactivity (PSR sort gate): high polyreactivity

Sequence: QVQLVESGGGLVQAGGSLRLSCAASGSTFGPYAMGWYRQAPGKERELVAAITWNGGSTYYADSVKGRFTISRDNAKNSVYLQMNSLKPEDTAVSFCNAVGSYGDFGYWGQGTQVTVSS
- polyreactivity (PSR sort gate): high polyreactivity

Sequence: QVQLVESGGGLVQAGGSLRLSCAASGSILRPNVMGWYRQAPGKERELVARISSRGVNTYYADSVKGRFTLSRDNAKNTVYLQMHSLKPEDTAVFYCNARRAQYYWNRSAKYDYWGQGTQVTVSS
- polyreactivity (PSR sort gate): high polyreactivity

Sequence: QVQLVESGGGLVQAGGSLRLSCAASGFIFWYYAMGWSRQAPGKERELVAAISYGGGSTYYADSVKGRFTISRDNAKNTVYLQMNSLKPEDTAVYYCAAAPRWKASRLYYWGQGTQVTVSS
- polyreactivity (PSR sort gate): high polyreactivity

Sequence: QVQLVESGGGLVQAGGSLRLSCAASGRIFYYNVMGWYRQAPGKEREFVAAISTRTGSTYYADSVKGRFTISRDNAKNTVYLQMNSLKPEDTAVYYCAAPYRAYSYDYWGQGTQVTVSS
- polyreactivity (PSR sort gate): high polyreactivity

Sequence: QVQLVESGGGLVQAGGRLRLSCAASGFTFSVYPMGWYIQAPGKERELVAAISWSGGSTYYADSVKGRFTISRDNAKNTVYVQMNSLKPEDTAVYYCNAYFSYKYRYPEDYWGQGTQVTVSS
- polyreactivity (PSR sort gate): high polyreactivity

Sequence: QVQLVESGGGLVQAGGSLRLSCAASGRTFDWYAMGLYRQAPGKERELVAAISWSGGSTYYADSVKGRFTISRDNAKNTVYLQMNSLKPEDTAVYYCATDSYTEQSWVAEGYSGQGTQVTVSS
- polyreactivity (PSR sort gate): low polyreactivity

Sequence: QVQLEESGGGLVQAGGSLRLSCAASGRIFPINTMGWYRQAPGKERELVAAISSNGGRTYYADSVKGRFTISRDNAKNTVYLQMNSLKPEDTAVYYCAADAGYYWPGYYYWGQGTQVTVSS
- polyreactivity (PSR sort gate): high polyreactivity

Sequence: QVQLVESGGGLVQAGGSLRLSCAASGSTFWYSDMGWYRQARGKDRELVAAISGSGGRTYYADSVKGRFTISRDNAKNTVYIQMNSLKPEDTAVYYCAADDYWSADFKYNYWGQGTQVTVSS
- polyreactivity (PSR sort gate): low polyreactivity

Sequence: QVQLVETGGGLVQAGGSLRLSCAASGRIFGSYAMGWYRQAPGKERELVASIRSGGRTKYADSVKGRFTISRDNAKNTVYFQMNSLKPEDTAVYYCAVPIEWDYGYWGQGTQVTVSS
- polyreactivity (PSR sort gate): low polyreactivity

Sequence: HVQHVESGGGLVQAGGSLRLSCAASGLIFGVNAMGWYRQAPGKERELVATITSGTSTYYADSVKGRFTISRDNAKNTVYLQMNSLKPEDNAVSYCAVRNGDSWYYYWGQGTQVTVSS
- polyreactivity (PSR sort gate): low polyreactivity

Sequence: QVQLVESGGGLVQAGGSLRLSCAASGSIFKYYAMGWYRQAPGKERELVAAITWSGTRTYYADSVKGRFTISRDNAKNTVYLQMNSLKPEDTAVYYCNAPRYLYSAGRFNYWGQGTQVTVSS
- polyreactivity (PSR sort gate): high polyreactivity

Sequence: QVQLQEIGGGLVQAGRSLRLSCAASGSISRLDYMGWYRQASGKERELVAAIDNGSTTYYADSVKGRLTISRDNAKYTVYLQMNSLKPEDTAVYFCAAVRGRGGTHAYWGQGTQVTVSG
- polyreactivity (PSR sort gate): low polyreactivity

Sequence: HDQLVESGGGLVQAGGSLRLSCAASGFTFLDYAMGWSRKAPGKERELVASISSSGGSTRYADSVKGRFTISRDNAKNTVYLQMKSLKPQDTAVYYCNAQIAEVPNDYWGQGTPVTVSS
- polyreactivity (PSR sort gate): low polyreactivity

Sequence: QVQLVESGGGLVQAGGSLRLSCAASGIIFTTNAMGWYRQAPGKERELVATISTGGGTYYADSVKGRFTSSRDNAKNTVYLQMHSLKPEDTAVYYCAATPGWGPWIFDHSYVDFDYWGQGTQVTVSS
- polyreactivity (PSR sort gate): low polyreactivity

Sequence: QVQLVESGGGLVQAGGSLRLSCAASGSTFDVYAMGWYRQAPGKERELVAAISYIGDNTYYADSVKGRFTISRDNAKNTVYLQMNSLKPEDTAVYYCAAEAEHYSFQDYYVEYDYWGQGTQVTVSS
- polyreactivity (PSR sort gate): high polyreactivity

Sequence: QVQLVESGGGLVQAGGSLRLSCAASGSISVHYAMGWYRQAPGKERELVAAISRRGGSTYYADSVKGRFTISRDNAMNTVYLQMNSLKPEDTAVYYCNASYYSVIQQTWYDYWGQVTQVTVSS
- polyreactivity (PSR sort gate): high polyreactivity

Sequence: QVQLVESGGGLVQAGGSLRLSCAASGGIFAYYAMGWYRQAPGKERELVAAITSRGGRTYYADSVKGRFTISRDNAKNTVYLQMNSLKPEDTAVYYCNAERFWPWDYDYWGQGTQVTVSS
- polyreactivity (PSR sort gate): high polyreactivity

Sequence: QVQLVESGGGLVQAGGSLRLSCAASGFIIIGYVMGWYRQSPGKERELVAAITSSVGSTYYADSVKGRFTISRDNAKNPVYLQMNSLKPEDTAVYYCAAEYYLLWSGMEYWGEGTQVTVSS
- polyreactivity (PSR sort gate): low polyreactivity

Sequence: QVQLVESVGGLVQAGGSLRLSCAASGRTFLNYAMGWYRQAPGKEREFVAAITWRVGTTYYADSVKGRFTISRDNAKNTVYLQMNSLKPEDTAVYYCNAVTARQSSQGEMDYWGQGTQVTVSS
- polyreactivity (PSR sort gate): high polyreactivity

Sequence: QVQVVESGGGLVQAGGSLRLRCAASGSIIKYYAMGWYREAPGKERELVADISWRGGRTYADSVKGRFTISRDNAKNTVYLQMNCLIPEDTAVYYCAKPSKARGGYDYWGQGTQVTVSS
- polyreactivity (PSR sort gate): high polyreactivity

Sequence: QVQLVESGGGLVQAGGSLRLSCAASGSIFQGNVMGWYRPAPGKERELVAAISYSGDSTYYADSVKGRFTISRDNAKNTVYLQMNRLKPEDSAVYYCYAYRNRYGYRTSSRRYGYWGQGTQVTVSS
- polyreactivity (PSR sort gate): high polyreactivity

Sequence: QVQLVESGGGLVQAGGSLRLSCAASGRIFYVYTMGWYRQAPGKERELVAAISWSGGSTHYADSVKGRFTISRDNAKNTVYLQMNSLKPEDTAGYYCNKGVVSRVAFEYWGQGTQLTVSS
- polyreactivity (PSR sort gate): low polyreactivity

Sequence: QVQLVESGGGLDQAGGSLRLSCVASGFTFRVYAMGWYRQAPGKERELVAAISRVGSTNYADSVKGRFTISRDNAKNTVYLQMNSLKPEDTAVYYCNAVLRHTWVSRGYGSWGQGTQVTVSS
- polyreactivity (PSR sort gate): high polyreactivity

Sequence: QVQLVDSGGGLVQAGGSLRLSCAASGSIFVGNAMGWYRQAPGKERELVAAITSSGGRTYYADSVKGRFTISRDNAKYTVYLQMNSLKAEDTSVYYCNTSRTRRFSLWDYDYWGQGTQVSVSS
- polyreactivity (PSR sort gate): high polyreactivity

Sequence: QVQLVESGGGLVQAGGSHRLSCAASGRTFWKYVMGWYRQAPGTERELVAVISRPAGSTYYADSVKGRFTISRHNEKNTVYLQMNSLKPEDTAVYYCAKRPKNKPVLGDYDHWGQGTQVTVSS
- polyreactivity (PSR sort gate): low polyreactivity
